Experiment: label from the status in PepcDB records

Row | Sequence | protein production
1 | MNMNITYISIYKTSLPVLVSLLMEYLIGFTDTAYLGRVGETELAASAIAGTYYMIIYMIGFGFSIGAQILIAQYNGNQQYKEAGKILSQGILFLLIIAVIVILFSSIISPIILKSIIDSESVLQAVLQYLDWRIYGFFFSFTIIMFRAFYIGIIHTSALMLNSITMVAINVILNYILIFGALGIPVLGISGAAIASVISEAVAVIHFIIYTQKNVSSCKYGLKRRITIDCTILKKILSISIWMMLQHGLVFGSWFVFFITMEHFGERSLAITNIVRNISSFLFLFVQAFASVVSSLVGNLIGENKGNSILYVCKKVIFLCYMTILPIMVLFLFFPSSTLRIYSDNTVLVFEAIPTLKVMLTSYLIAVPTFVFFSAVSGIGHAVASLLIAFISLVVYIVYVETISHFSSSVPLLWTSEHIYFSCVFILSLYHIHHSWMSFINQDKKLTTNIS | failed
2 | MNNHQTPQATSPLAAWLCYLEHLHSQPIELGLERVKQVAERLDLLKPAPKIFTVAGTNGKGTTCCTLEAILLAAGLRVGVYSSPHLLRYTERVRIQGQELSEAEHSHSFAQIEAGRGDISLTYFEFGTLSALQLFKQAKLDVVILEVGLGGRLDATNIVDSDVAAITSIALDHTDWLGYDRESIGREKAGVFRGGKPAVVGEPDMPQSIADVAAELGAQLYRRDVAWKFSQQEPFDQQEPVDQQINGWHWQCGERQLTGLPVPNVPLANAATALAVLHYSELPLSDEAIRQGLQAASLPGRFQVVSEQPLLILDVAHNPHAARYLVNRLAQVINPVNASKQGKVRAVVGMLSDKDIAGTLACLSERVDEWYCAPLEGPRGASAGQLAEHLVSARQFSDVETAWRQAMQDADTQDVVIVCGSFHTVAHVMAALHL | not failed
3 | MNNINTIIQREYMIRVRKKSFLVMTILMPILFVGLVSLPIVLAQLGGDMKTIAIADRTGEYEQLFKENDEFRFVHAEKTAEEYRKMGADKSGIDAVLEIRQDLLEDPNAVAIYGYKQLPASVSNHISRILSDYLSDKKIASYNIPDIKQILADSKIELSVHTYKWSEDGTNERTSGELASGISMMMMVVIFFLIMTLAAMVQAGVLEEKKNRIMEVMVSSTRPFNLMMGKIIGIGLVGLTQLICWGVLTVLLLTVAQIAFLGNLYSPEALSRMQASDITGMASSMNAEDFAEMKEVMNIIGGINFGELFVMFLIFFIGGYLLYSSIFAVIGSMVSNDEDTSQFMMPVMILLMFGFYAAYGSMNNPEGSLAFWCSLIPFTSPLVMMVRLPYDVPLWQELLSIGLLYGCFVLMTWIGAKIYRVGVLMYGKKPSIKEIIRWINYK | failed
4 | MNNIRQLTKDEYPKAIELSWQVFTITGKEDFNNEGLEFFKSFIYNKKCINEIIFYGSFDNEALTGILGIKSNGKHISLFFIKPEYHRHGLGKKLFHYASTLHPSIETTVNSSTYAIPFYRSLGFAVVGEKQNYHGLCSTPMRRYHAVFVQKNKYTLRTWQTEDAHSLVQELNNKKIWDNCRNVFPHPYRLEHAETFIDLIQKKEGIHDFCIEVNGKAVGNIGFTPGTDVECFNAEVGYVIGEKYWNQGIVTDALQEAIYHYFTYTNTIRIFALVFEHNLPSMRVLEKAGFNKVGIMTKSIFKNGHFTNAHLFELLKNVLEHHHHHH | failed
5 | MNNISSNIKKVLFIFLVIFFVTISYITYFELIVSPKIVNNTDNKRLWAKRNEVLRGTIYDRNKKALTKSERVNTLTQKREYTGGAMFSHVLGYVNPQYGLTGLEAKYDQYLMGADDQPINQYLMELIKNKGKVSPEDKRGEDVVTTLDYNIQQQAYNLLGDNKGSVVVLNPKTGEILAMVSKPSYDPNDDALKASWAALNSNPDRPLLNRAVSGLYPPGSTFKTVTAISALENISGIQNETFNDPGQLVFNSTESLRDFGGESFGDIGFKHAYVVSSNVVFGKIGLQLGNNNLRQTAESFYFNKNIPCDGIVIDKSKFPTLKSYEKGNMAQSAIGQASVLATPIQMALVASTVANDGVMMKPHVVNEILSPNGDKIKSIEPESIGNIVSKENAATMKDFMRNVVEDGTGVNAAVEGIQVAGKTGTADHKVNGKDATPHSWFIGFAPYDNPQVAIAVIVEDGGQGGKAAAGIASKVIQTALQK | failed
6 | MNNKQLDFTEGSITKKMVVFSWPIFLSNLLQTSYQITDSLWVGNLLGASALGALSISATVVFMVLSFIIGLNGATLTVLSQRQGAKDEAGLKASLNAFVFVLGLLAILLGLIGYFSASSILQLLGTPEEILPLAESYLKINFIGILFLFGYNFIGTVLRAMGDSRSPVRFIFIAVILNIILDPLMIAGFNLGIDGAAYATIVSQGTAFIYGLIYSVRKAGVPFQIPYVPEKRYFFVLFKLGLPAGLSMITISAGVTAILSVVTSFGEEAVAGFGAAQRLDSLIMLPALTLGSAVNTIAGQNIGANKWERVRATAKQGVMLIIAVTLIIGLITFIGAQFFIRLFVRDEATVAFGAMYIQTIAFFYPFLGINFVLNGIVRASGAMFPVLLLNIISFWILRYPLTYWMSDLFGERGIALGMGFAFVVSSLIATGYYFLGNWRKVGEELAQKTGHSKV | failed
7 | MNNLFAAPTPEEHAALLQEIGPLPLSGQAWPDWVRILAWIVLAVIGVQIVTTAIGLPPGQVNPVLAGTIILCFLGLALVSWHMQISVTRIDESGLRQTWITRREVAWQDIQFAKFVPLLFSKRLVVFTRHGRPIVFQGGTRDLQVAFAKISLLYRRKR | failed
8 | MNNPDLPYRQALECLSQKQYNFTEVRRLLTEAFSAGHPAAAFELAKHLMDADSPYQDREQGMEMLRIAAEQGHPYARYNLAYIQELEGAPPETLIPLYRPLAEEGLPEAQVRLMYLLYASRHFEEALEWAKTSAKNNNPHGQYLLAQYCRYGTPPDFETAHLLYRKSAAQGLPEAHWQLGLQYRFGQGTKVDTAQAVNHLRAAAQQGYIPAYTPLAELILPTAPDEAVHWFQQAAQENDPDAHAALADIYLQGKHLERNHKLALHHAEAAAAERHPEGLRILGDICRYGLGIAPDTEKARHYYRQAAEAGSLSAYQKLISDSALNHPDQYGGIKDSAIRRQRAERLYQKAQALHYGLQCAPEYAAALKLYTEAAELGHSKAQTNLGSMYYFGQGMTADYNEARKWFEKAAAKKDSMAFYNLACIHYSGHGVEPDKEKACRYLQEAINNGYGQKSVLQELLQQWQNAV | failed
9 | MNNQYKLIEEFNNAEFDKSLKWFSPPKDWEVNSNKSKLIVKPDKETDFWQKTHYEFQVDNGHFLYYELNGDFRLITKVKSKPANRYDQAGLMVRFSKDTWLKTSVEYIPDDNSKLGVVVTKNGYSDWSSQEFFGDLNSLYYRITRRGNNYYVDYSLDGDLWKQIRMVYLFEEKDCMKVGIYACSPQGDGYEAEFEFIKIENIDDNTKVY | failed
10 | MNNRDLLLGIFVMIIWGLNFSVIKLGVSEIDPLLLTALRFSFAVIPAVFFVKRPQVKWRYLMGYGLVFAIGVWGMGSWSIQAGLSAGMASVLLQMNVVISLLVGYFVLKETVAPIKVVGSVVAILGLALSVSVTDGSVTTLGLVFILIAALSWSITSILVKKAGTKEIFAFSIWGMLFAPLPLFALAFLRGGPEQLQTLNSLANGSVIFSVLFQAYPVTLFGYWVWNRLLVKYPLSTVAPLTFLVPIFGLLGSAIFYQEQIGLVKALACLLIIVGLIIGLIKTEKLKAYLHQPKSAKQVV | failed
11 | MNNRELYGNIRDVYHLLQKNLDKAIEQYDISYVQFGVIQVLAKSGKVSMSKLIENMGCVPSNMTTMIQRMKRDGYVMTEKNPNDQRETLVYLTKKGEETKKQVDVQYSDFLKENCGCFTKEEEGILEDLLLKWKKHLN | not failed
12 | MNNSFRNKIHEQSKENLSDDRHKKSDRTLIVFNRKTPLYFYFFEQVRYITGSIYILIETPSSRNLPIYSNICIPISSHPNTNYRPKKRKKNPPTVYLTTIILIMGLLSLEDTIKEKLKDRKNAHFMLVDGMSKLLTEKVKNCQSLDFQVSGVKWRLVIRLSRGRKDHLSFVLEITDEKCTGSTWDVKFNFKIGIVPQTGPDYCFVLVGHQNEKKRSQGLANFISHTDLKERFLVNDKAGFYAEISDVQPNFPVTRIPRTMGTAERFKLIEFSPKNSRFTWKITQFSSFDGEEHSSYEFTVGPRRWKLVMYPKGNGDGKGNSLSLYLFASDYVTNGPKGGTLAIYKLRVLDQLNRNHCETECRYWFPYNPVNQMDSLWGRPKFLPLEELHKSSRGFLVNDQIYIGVEISIVSTTEYL | failed
13 | MNNTLLYVITVLIWGSTWIAINYQLGEVAAEVSIVYRFGLAALCMFAYCRFKKLPLKFSAKQHLQLSAFGLTLFGFNYYLLYNAQAHINSALTSIAFSTLMMINILNARVWFKTRISSRVYYGGALGLMGIVTLFWPQISNVHFGDSTLLGLGLCLIGVVFASTGNMISIKNQHDNMPVLPATAWGMMYGSLFMFVVALVQGQTFNFSYTFEYISSLLYLSIFGSVIAFGCYLTLLARIGAHKASYATIMFPAVAVVISSFFEGFIWDSYTFIGLSLMLAGNLVVLAKPGMLKRFNSTSLKQVSCSDAK | failed
14 | MNPGKGPVLRFRVQLLVVGFALALGAAHQAQAAPGRALYKLPDLRVGLGDDNQGDTIPGPTRPNGSIHPSPDTLKASNAGYNPAEPISGFAQLHSQGSGGVTTYGTFLLSPQVGEPVFDEAAHLSPKADETLAADAYSVRLTRYDTKVEITSAHYAAIYRLTYPTTDQAQVVLDVTRKVGGLVASEQADVQLFPEQGRIVGHVKAKGYWNPALIDIWFVAEFDQNPTAWGVFDKAERRDGALSGRTGSDERLGAWLTFKTTPTKPLLVKIAVSFVSAEMAKALLDREIPDWDFERVRRDTQAAWNDRLGQVRVEGMTESQQRRFYSALYHASTHPRDRSLDQPAARLGRPNWDEHYTLWDTYRTLFPLISVLRPSLYTANVNSLIHTFDKFGAADTAIIGGQNYHVGQGGDEVDNVLGEALLRGAEGVNWRDAWRVARFNAFERRRPRYLESGYFAVGDRSPEPNNQRAKSGSSTLGFALNDFYAAQVAAKAGQTDEAKILTERSANWRKIWNPDATSDGFSGFLMPRYADGKFQDIDPKLGWDGKVHNNVGYYEGTAWIYSYGVLHDLPGLVEAMGGRVRFNERLNHALDAGLIDITNEPSFATPWLFHAIGRADLSSRWAGEVVKHFTADAYPGDEDAGAMSSNFVFNSLGLFPKLGSDLYYLHGPRHGRTVIQLENGKTLEILAAKAGASRPYIASASFNGKPLAGPYVSQAQLLGGGVLSLSMSDQPGQWIYEGAVLTVRADQPSLVDGKTSTGWRAASGQSVTFSLKAPACIAAYSVSVGPDQADPSHWTLQAYDGRAWVSVDQQSNVVFDHRHATRTFPLAPGRYARLRWVLDGGSEASVSEVELIAGASCAAPTSGAPLL | failed
15 | MNPIVKAPTLNDLPAPPPGKTGWPWTEQNEALPEKMPDGSDWPKISIVTPSYNYGQFIEETIRSVLLQGYPNLEYIVVDGGSTDNTVTIIRKYEKYLKYWASEPDHGQTDAINKGYRYCSGDVFAWLNADDLYYDQSTLLKVINFYQKGYDLIVGECLNINADGTHFNQAITSTEKSDPTYFKKYLRYWSSGFLPQPAIFVKKEMADQCFPLSIELYYAMDFQFFLRVLNQEPKSVWIQEKLTRLRWHEDSKTMGTISRIDFHAIVPEPEVHKVALAEAENLPTWLEKIFFRIQAFDYLSLQPYINSLDNFHWLQITKTIVKRPTLAVWPLFWKIFFRSLLGEQIYKLLKRTIRTNLEHHHHHH | not failed
16 | MNPLVIKLGGVLLDSEEALERLFTALVTYREKHERPLVIMHGGGCLVDELMKRLALPVVKKNGLRVTPADQIDIITGALAGTANKTLLAWAVKHQINAVGLCLADGNTVTVTLLDAELGHVGKAQPGSAALVQTLLAAGYMPIISSIGITVEGQLMNVNADQAATALAATLGADLILLSDVSGILDGKGQRIAEMTAQKAEQLIAQGIITDGMVVKVNAALDAARSLGRPVDIASWRHSEQLPALFNGVPIGTRISV | not failed
